{"source": "patent US20230105982A1", "about": "“INSULIN-INCRETIN CONJUGATES” (Merck Sharp & Dohme Corp., priority 2021, published 2023)", "key": {"[1]": {"target": "minipig insulin receptor (minipig)", "experiment": "cell-based or functional assay"}, "[2]": {"target": "human insulin receptor (pAkt assay, CHO cells overexpressing human IR) (human) (UniProt P06213)", "experiment": "cell-based or functional assay"}}, "data": [{"substance": "Insulin levemir (ligand)", "values": [{"measurement": "Insulin Receptor pAK Assay EC50", "setting": "[1]", "value": 0.5, "unit": "nM"}, {"measurement": "Insulin Receptor pAK Assay EC50", "setting": "[2]", "value": 0.51, "unit": "nM"}]}]}
